Laboratory results from the supplement of paper PMC9170038.

Test system: MS2 coat protein
Test: apparent KD of MS2 coat protein; designed switch direction (-1 OFF switch, 1 ON switch): -1; higher = weaker reporter binding
Method in brief: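 Designed RNA switches with common flanks were transcribed on Illumina chips by stalled E. coli RNA polymerase and titrated with SNAP-549-labelled MS2 coat protein, from 0.7 or 1.5 nM doubling to 3 µM, in Tris-HCl pH 7.5 buffer with KCl, MgCl2, BSA, DTT, tRNA and Tween-20. Steps lasted 0.8–1.5 h (lowest) to 10–20 min (highest). Titrations ran without input, with 200 uM small-molecule ligand, or with an oligonucleotide input. Normalised cluster fluorescence was curve-fitted, and apparent KD is the per-design median over clusters.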

[1] = input ligand: microRNA oligo, concentration not stated
[2] = Eterna round: R95, input ligand: microRNA oligo, concentration not stated
[3] = Eterna round: R95, input ligand: FMN 200 uM
[4] = Eterna round: R95, input ligand: none

| Sequence | apparent KD of MS2 coat protein (input ligand: FMN 200 uM) [µM] | apparent KD of MS2 coat protein [1] [µM] | apparent KD of MS2 coat protein (input ligand: none) [µM] | apparent KD of MS2 coat protein [2] [µM] | apparent KD of MS2 coat protein [3] [µM] | apparent KD of MS2 coat protein [4] [µM] |
| --- | --- | --- | --- | --- | --- | --- |
| CACCUGAACUCAGGAUAUCAUACAUGAGGAUCACCCAUGUAAUAAAUGAGAAUUUCGAAUGUAAUUGAGAAGGGAGAAUAAGGC [Ostricism 98 - Jieux - Exclusion NG 2] (Eterna round: R96, puzzle: Exclusion NG 2) | 0.0888 | 0.0338 | 0.0388 | – | – | – |
| ACAUGAGGAUCACCCAUGUCGGGCUGGUCCGCUCCGGCUGUUGAGGAUAUAGCCCGGUAUCCGCGCUAGAAGGUGAGGGCCGGC [Aenatbe mod 29] (Eterna round: R96, puzzle: Exclusion NG 3) | 0.0356 | 0.0295 | 0.0314 | – | – | – |
| CUAUUGUGAGGAUAUCAGUAGUAAUACAAUAGUAUUACUACUGAGAAGGCACAUGAGGAUCACCCAUGUUCCUU [Mat - Exclusion 4 - Mod of Omei - D76] (puzzle: Exclusion 4) | – | – | – | 0.0144 | – | – |
| UUUUAACAUGAGGAUCACCCAUGUGAGGAUAUCGAAAUUUAUAUUUAUAUUUAUAAAUCGAGAAGGCACAUUUU [JMF 92] (puzzle: Exclusion 1) | – | – | – | 0.111 | – | – |
| GUGAGCAGACGGAGAUCCUACAUGAGGAUCACCCAUGUCUCACUAGCUUUUUGCUCGUCUUAUCCUCCUCUGUUCUC [Elimod 25 - Jieux - Sensor, turn-off variant 1] (Eterna round: R97, puzzle: Sensor, turn-off variant 1) | 0.176 | – | 0.201 | – | – | – |
| CUUCACCCACUAGAGCUCACCCACAAACCUACUCUAGUGACAUGAGGAUCACCCAUGUUUUUUGCCCGUCUUAUCUU [Qugeenerce] (puzzle: Sensor v3, turn-off variant 2) | – | – | – | 0.184 | 0.0402 | 0.0414 |
| GACCUAUAGGUAGGAUAUCAUUGCGAUUAGCUAUGAGAAGGGCCACAUGAGGAUCACCCAUGUCCUCCAAUUAACCAUAAGGUC [Fiskers ExNg1 - 6] (Eterna round: R96, puzzle: Exclusion NG 1) | 0.0385 | 0.0267 | 0.0373 | – | – | – |
| AGUACUAUCACGAAAGUGAUAGUACAAUUGAGCUUUUGAACAUGAGGAUCACCCAUGUCCUCAUAAGCUCGUCUUAA [Mat - Sensor v2 - var 2 - Mod - D171] (Eterna round: R96, puzzle: Sensor v2, turn-off variant 2) | 0.0287 | 0.496 | 0.0305 | – | – | – |
| AAAAGAAGUGUUAGGAUAUGUGGAAGUAGAAAGACACAGAAGGAACAUGAGGAUCACCCAUGUGGCCUAAGAAC [Bibire] (puzzle: Brourd's mod of Exclusion 4) | – | – | – | 0.0105 | 0.0154 | 0.0116 |
| GGGUGACAGUUAGGAUAUCUUAGCACGCCGUAGAGAGAAGGAACAUGAGGAUCACCCAUGUUGUAGUGCCUCCGGCACUGCUAG [Zaquata] (Eterna round: R96, puzzle: Exclusion NG 1) | 0.0592 | 0.0301 | 0.0435 | – | – | – |
| GUUUGACAUGAGGAUCACCCAUGUGAGGAUAUCGGCUGGUACGUGUUGGCUGGCAUCUCGAGAAGGCACAUAGG [Exclusion 1 V58] (puzzle: Exclusion 1) | – | – | – | 0.109 | – | – |
| UGAGCUCUAGUAGGAUAUGUCGGAUAUGUUGUUGAGGUUCACCCAACGACGUCAAUGACAGAAGGACAGAAGGACUCCUGCUCU [pwkr exNG2 2xFMN 1xF5.7] (Eterna round: R96, puzzle: Exclusion NG 2) | 0.111 | 0.077 | 0.315 | – | – | – |
| GGAGGAAAGAUAGGAUAUUAGAGGAAGGUGGUGAUAGAGACAUGAGGAUCACCCAUGUAAGGAGGUAAGAAGGGUCGAGGAGGA [AK ExNG2-V2-6] (Eterna round: R96, puzzle: Exclusion NG 2) | 0.231 | 0.0665 | 0.243 | – | – | – |
| AGUAGAUCUACGCUUGCGUGGAUCUGCAAUGCAGGUGUUACAUGAGGAUCACCCAUGUCCUCGUUUGCUCGUCUUAU [JL turnoff v2 99.12] (puzzle: Sensor v3, turn-off variant 2) | – | – | – | 0.664 | 0.209 | 0.222 |
| UUUUAACAUGAGGAUCACCCAUGUGAGGAUAUCGAAAUUUAUAUUAAUAUUUAUAAUACGAGAAGGCACAUUUU [JMF 54] (puzzle: Exclusion 1) | – | – | – | 0.0844 | – | – |
| GUUGUUUAUGUAGGAUAUGCCUGGCGUGCCUUUGCAGAAGGACAUGAGGAUCACCCAUGUAACAUGAGGCUCACCCAUGUCGCU [salish99_ExNG1_r04_108] (Eterna round: R96, puzzle: Exclusion NG 1) | 0.397 | 0.159 | 0.296 | – | – | – |
| AGAUGGCGAGGAUAUACAUGAGGAUCACCCAUGUGAGAUAAAAUAGUGAGGAAGAAAAGUAGAAGGCGCUGUCA [Mat - Exclusion 3 - Mod of Salish D15] (puzzle: Exclusion 3) | – | – | – | 0.0581 | 0.268 | 0.073 |

| Sequence | apparent KD of MS2 coat protein (input ligand: FMN 200 uM) [µM] | apparent KD of MS2 coat protein [1] [µM] | apparent KD of MS2 coat protein (input ligand: none) [µM] | apparent KD of MS2 coat protein [2] [µM] | apparent KD of MS2 coat protein [3] [µM] | apparent KD of MS2 coat protein [4] [µM] |
| --- | --- | --- | --- | --- | --- | --- |
| GUCCAGGCAGGAUAUGUACAGGAGCACUUGAGGAUCACCCAAGUCCUCGUGUUGUUGUCAGCAGAAGGGCCCAUUA [Dizaquin] (Eterna round: R97, puzzle: Exclusion 5) | 0.529 | – | 0.187 | – | – | – |
| AGUAGAUCUACGCUUGCGUGGAUCUGCAAUGCAGGUGUUACAUGAGGAUCACCCAUGUCCUCAUUUGCUCGUCUUAG [JL turnoff v2 99.06] (puzzle: Sensor v3, turn-off variant 2) | – | – | – | 0.663 | 0.0974 | 0.0919 |
| GGGCUGUCAGGAUAUUCGAGUUCGAGUGAAAGCUUGAGCUUGAAGAAGGGACAUGAGGAUCACCCAUGUGGCCC [-32.1, -31.1 kcal, A 26%, 1bis-0] (Eterna round: R97, puzzle: Exclusion 4) | 0.0305 | – | 0.0319 | – | – | – |
| GGAUCUUGGGUCAGGAUAUGCUGAUAGUUAUGUCAGCAGAAGGGACAUGAGGAUCACCCAUGUGCUUGGUUUUG [Magic-17] (puzzle: Brourd's mod of Exclusion 4) | – | – | – | 0.0131 | – | – |
| UUUUUAUAUGAAGGAUAUACUUAACAUGAGGAUCACCCAUGUGGUGUUGUGAGUGAGUGAGUUUAGUAGAAGGUCAAUUCUUUA [JMF's solution 83] (Eterna round: R96, puzzle: Exclusion NG 2) | 0.866 | 0.443 | 0.463 | – | – | – |
| UUUAUGUCAGGAUAUACAUGAGGAUCACCCAUGUAUAUCUUAAAGUAUACAUGGGAAUGUAGAAGGGACCUCCU [Omei Ex3 Pseudoloop 5] (Eterna round: R97, puzzle: Exclusion 3) | 0.0438 | – | 0.035 | – | – | – |
| CGGGUUCGUGUUAGGAUAUGCACGCACCCGUAGCGGCAGAAGGAACAUGAGGAUCACCCAUGUGAAUAAGAAAA [BmEX4 A.3] (Eterna round: R97, puzzle: Brourd's mod of Exclusion 4) | 0.0183 | – | 0.0155 | – | – | – |
| ACAUGAGGAUCACCCAUGUUAACGAAAAGGCUCAUGUAGAGUGAGGAUAUGUGAGACGAACGAGAACAGAAGGCACAAGACAGG [Deportation 2 - Jieux - Exclusion NG 3] (Eterna round: R96, puzzle: Exclusion NG 3) | 0.0242 | 0.0152 | 0.0223 | – | – | – |
| CACCUGAAGUCAGGAUAUCAUACAUGAGGAUCACCCAUGUAAUAAAUGAGAAUUUCGAAUGUAAUUGAGAAGGGACAAUAAGGC [Ostricism 97 - Jieux - Exclusion NG 2] (Eterna round: R96, puzzle: Exclusion NG 2) | 0.0932 | 0.034 | 0.0442 | – | – | – |
| AGGUCACAUGAGGAUCACCCAUGUCAGGAUAUCUACAUUGAAGCCUCGGCUUCAAUGUAGAGAAGGGACAAUUA [E1/6-B2] (Eterna round: R97, puzzle: Exclusion 1) | 0.209 | – | 0.0722 | – | – | – |
| AACCUGUCAGGAUAUCAAUUCUGUGCGUGACUACAGGACGCUGAGAAGGGACAUGAGGAUCACCCAUGUUGACU [Eternabot (Original) Solution 33] (Eterna round: R97, puzzle: Exclusion 4) | 0.0247 | – | 0.0268 | – | – | – |
| AUUAAAUAAGGAUAUACAUGAGGAUCACCCAUGUGUAGCAAGGUGUUGCGAUCCGCAAGUAGAAGGUGUAUAAU [Eternabot (L2) Solution 2] (Eterna round: R97, puzzle: Exclusion 3) | 0.0496 | – | 0.032 | – | – | – |
| AUUAGCGUAGGAUAUUGAUACAUGUACAUGAGGAUCACCCAUGUGAGGUGAGUCUUGGAUUAAGAAGGGCGAAGAA [EX5 #37] (Eterna round: R97, puzzle: Exclusion 5) | 1.08 | – | 1.27 | – | – | – |
| AGUACUAACACGUAAGUGUUAGUACAAUAAGCUUGUGUUACAUGAGGAUCACCCAUGUCCUCAUAAGCUCGUCUUAU [Mat - Sensor v3 - Turn-off var 2 - D60] (puzzle: Sensor v3, turn-off variant 2) | – | – | – | 0.0776 | 0.134 | 0.15 |
| UUUUAACAUGAGGAUCACCCAUGUGAGGAUAUCGAAAUUUAUAUUUAUAUUUAUAAUACGAGAAGGCACAUUUU [JMF 94] (puzzle: Exclusion 1) | – | – | – | 0.0823 | – | – |
| AUUGUUUAUGUAGGAUAUGCCUGGCGUGCCUUCGCAGAAGGACAUGAGGAUCACCCAUGUAUUGCGGUCUGCGUUCAGAUCGCG [salish99_ExNG1_r4_026] (Eterna round: R96, puzzle: Exclusion NG 1) | 0.0653 | 0.0343 | 0.0475 | – | – | – |
